Experimental data taken from publication doi:10.1101/2025.01.07.631698.
Where two headings read alike, the source gives them in different places.

Columns and labels:
[1] = biological target: microtubules polymerised from porcine tubulin (porcine) (UniProt P02550); assay: FRAP
[2] = biological target: microtubules polymerised from porcine tubulin (porcine) (UniProt P02550); assay: FRAP; remark: listed apart in the source

koff [1]: 0.26 s⁻¹
koff [2]: 1.07 s⁻¹
Substance: Anillin-GFP (full-length human anillin, isoform 2, 1087 amino acids) (from UniProt Q9NQW6-2 1-1087) (natural protein)
